Like-named read-outs stand apart in the source and are kept apart here. Each block holds one binder with its values, some of them ahead of it.
Experiments:
[1] = target: T1, recombinant human 5T4 ECD protein fused to human Fc (human, UniProt Q13641 32-355); assay: Octet, mAb on AMC sensor, 5T4-ECD Fc as analyte
T1 construct: extracellular domain; Immunogen, ELISA antigen and Octet analyte; also called 5T4-ECD-hFc; 5T4-ECD-Fc; not shown: human Fc
T1 sequence (looked up): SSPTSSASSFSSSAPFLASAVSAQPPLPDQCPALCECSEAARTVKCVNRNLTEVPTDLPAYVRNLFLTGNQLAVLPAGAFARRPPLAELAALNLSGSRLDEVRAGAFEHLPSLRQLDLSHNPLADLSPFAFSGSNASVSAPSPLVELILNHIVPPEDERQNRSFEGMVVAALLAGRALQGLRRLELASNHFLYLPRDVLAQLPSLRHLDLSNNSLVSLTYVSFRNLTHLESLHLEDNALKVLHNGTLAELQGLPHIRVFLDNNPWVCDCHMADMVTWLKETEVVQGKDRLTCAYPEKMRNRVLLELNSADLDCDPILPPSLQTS
Method: (§1) Binding Affinities by Octet Test. Briefly, mAb were analyzed by Octet RED 384 instrument, where human 5T4-ECD Fc antigen at 200 nM and 100 nM served as the analyte and the purified mAbs at 5 μg/ml served as the ligand, bound to AMC sensor (anti mouse Fc antibody) with immobilized phase of 180 s, association phase of 300 s, dissociation phase of 180 s.
(§2) FIGS. 7A-7G present the Octet data determined the KD affinities of selected mAb.

[2] = target: T1, recombinant human 5T4 ECD protein fused …; assay: Octet, mAb on AMC sensor, 5T4-Fc as analyte
Method: as §1, §2

[3] = target: T1, recombinant human 5T4 ECD protein fused …; assay: ELISA, coated 5T4 antigen
human 5T4 on cells [4] = target: T2, human 5T4 on cells (human, UniProt Q13641 32-420); assay: FACS, CHO cells over expressing human 5T4
T2 construct: whole, on cells; also called CHO cells over expressing human 5T4; MCF-7 (endogenous 5T4)
T2 sequence (looked up): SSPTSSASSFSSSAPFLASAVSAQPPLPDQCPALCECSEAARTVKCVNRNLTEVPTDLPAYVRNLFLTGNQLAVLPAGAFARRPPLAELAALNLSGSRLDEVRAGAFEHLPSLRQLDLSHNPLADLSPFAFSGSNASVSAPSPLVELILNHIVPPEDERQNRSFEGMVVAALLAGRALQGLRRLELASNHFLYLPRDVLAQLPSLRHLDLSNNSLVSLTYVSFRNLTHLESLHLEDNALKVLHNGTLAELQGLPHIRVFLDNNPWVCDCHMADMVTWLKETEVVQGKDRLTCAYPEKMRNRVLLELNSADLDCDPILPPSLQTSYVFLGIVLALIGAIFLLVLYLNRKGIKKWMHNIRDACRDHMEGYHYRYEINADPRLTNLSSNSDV

cyno 5T4 on CHO cells [5] = target: T3, cyno 5T4 on CHO cells (cyno, UniProt Q4R8Y9 35-420); assay: FACS, CHO cells over expressing cyno 5T4
T3 construct: whole, on cells; also called CHO over expressing cyno 5T4
T3 sequence (looked up): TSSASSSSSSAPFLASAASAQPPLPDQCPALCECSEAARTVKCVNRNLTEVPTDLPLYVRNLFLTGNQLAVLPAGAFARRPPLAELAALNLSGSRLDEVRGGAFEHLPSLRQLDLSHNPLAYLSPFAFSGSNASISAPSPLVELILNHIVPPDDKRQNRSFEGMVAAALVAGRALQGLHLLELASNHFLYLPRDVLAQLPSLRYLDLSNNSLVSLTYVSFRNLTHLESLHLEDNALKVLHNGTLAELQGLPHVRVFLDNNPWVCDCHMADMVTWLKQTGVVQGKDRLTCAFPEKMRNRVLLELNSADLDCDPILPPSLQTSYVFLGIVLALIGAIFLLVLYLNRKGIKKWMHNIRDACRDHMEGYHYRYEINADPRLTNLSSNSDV

human 5T4 on cells [6] = target: T2, human 5T4 on cells; assay: FACS on CHO over expressing human 5T4; FACS, CHO over expressing human 5T4
human 5T4 on cells [7] = target: T2, human 5T4 on cells; assay: FACS on MCF-7 cells endogenously expressing 5T4; FACS, MCF-7 endogenously expressing 5T4
[8] = target: T4, h5T4-His (cat #19845-H08H, Sino Biological) (human, UniProt Q13641 32-355); assay: ELISA on recombinant 5T4 protein; ELISA on recombinant 5T4 protein
T4 construct: also called recombinant 5T4 protein; 5T4 recombinant antigen protein; not shown: His tag
T4 sequence (looked up): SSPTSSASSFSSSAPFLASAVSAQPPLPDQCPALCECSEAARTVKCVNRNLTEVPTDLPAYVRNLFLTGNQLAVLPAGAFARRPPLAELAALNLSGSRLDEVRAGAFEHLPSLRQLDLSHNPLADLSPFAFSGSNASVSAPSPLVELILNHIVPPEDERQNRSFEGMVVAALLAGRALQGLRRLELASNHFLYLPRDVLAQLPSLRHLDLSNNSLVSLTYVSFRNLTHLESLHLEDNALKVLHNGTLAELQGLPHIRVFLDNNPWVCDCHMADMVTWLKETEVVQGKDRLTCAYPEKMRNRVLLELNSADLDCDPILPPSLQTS

cyno 5T4 on CHO cells [9] = target: T3, cyno 5T4 on CHO cells; assay: FACS on CHO over expressing cyno 5T4 (data not shown); FACS, CHO over expressing cyno 5T4
[10] = target: T1, recombinant human 5T4 ECD protein fused …; assay: ELISA, coated 5T4 antigen; remark: listed apart in the source
cyno 5T4 on CHO cells [11] = target: T3, cyno 5T4 on CHO cells; assay: FACS, CHO cells over expressing cyno 5T4; remark: listed apart in the source
cyno 5T4 on CHO cells [12] = target: T3, cyno 5T4 on CHO cells; assay: FACS, CHO cells over expressing cyno 5T4; remark: listed apart in the source
human 5T4 on cells [13] = target: T2, human 5T4 on cells; assay: FACS, CHO cells over expressing human 5T4; remark: listed apart in the source
[14] = target: T1, recombinant human 5T4 ECD protein fused …; assay: ELISA, coated 5T4 antigen; remark: listed apart in the source
[15] = target: T1, recombinant human 5T4 ECD protein fused …; assay: ELISA, coated 5T4 antigen; remark: listed apart in the source
[16] = target: T1, recombinant human 5T4 ECD protein fused …; assay: Octet (data not shown; antigen format not stated here)

B1: mAb008 (antibody, V domains shown)
VH: QVQLQQSGAELMKPGASVKLACKATGYTFTAYWIEWVKQRPGHGLEWIGEILPGRGSTNSNEKFKGKATFTADTSSNTVYMQLSSLTTEDSAIFYCARGYRDFDYWGQGTTLTVSS
VL: DIVMTQSQKFMSTTVGDRVSIICKASQNVGTAVAWYQQKPGQSPKVLIYSASNRYTGVPDRFTGSGSGTDFTLTISNMQSEDLADYFCQQYTSYPRTFGGGTKLEIK
notes: also called IM, 5T4 mouse hybridoma cl-8
- Kd [1]: 0.209 nM
- koff [2]: 3.87e-05 s⁻¹
- kon [2]: 185000 M⁻¹ s⁻¹
- EC50 (read off the curve) [3]: ~0.3 nM
- EC50 (read off the curve) (human 5T4 on cells [4]): ~5 nM
- EC50 (read off the curve) (cyno 5T4 on CHO cells [5]): ~5 nM

B3: mAb008-hIgG1 chimeric Ab (antibody, V domains shown)
VH: QVQLQQSGAELMKPGASVKLACKATGYTFTAYWIEWVKQRPGHGLEWIGEILPGRGSTNSNEKFKGKATFTADTSSNTVYMQLSSLTTEDSAIFYCARGYRDFDYWGQGTTLTVSS
VL: DIVMTQSQKFMSTTVGDRVSIICKASQNVGTAVAWYQQKPGQSPKVLIYSASNRYTGVPDRFTGSGSGTDFTLTISNMQSEDLADYFCQQYTSYPRTFGGGTKLEIK
notes: Mouse VH and VL of mAb008 cloned into human IgG1
- EC50 (human 5T4 on cells [6]): 5 nM
- EC50 (human 5T4 on cells [7]): 4.4 nM
- EC50 [8]: 0.4 nM
- EC50 (cyno 5T4 on CHO cells [9]): 5.7 nM

B5: mAb003 (antibody, V domains shown)
VH: QVQLQQSGAELMKPGASVKLSCKATGYTFTGYWIEWVKQRPGHGLEWIGEILPGRDSTNSNEKFKGKATFTADTSSNTVYMQLSSLTTEDSAIFYCARGYRDFDYWGQGTTLTVSS
VL: DIVMTQSQKFMSTTVGDRVSIICKASQNVGTAVAWYQQKPGQSPKVLIYSASNRYTGVPDRFTGSGSGTDFTLTISNMQSEDLADYFCQQYSSYPRTFGGGTKLEIK
notes: also called IM, 5T4 mouse hybridoma cl-3
- EC50 (read off the curve) (cyno 5T4 on CHO cells [12]): ~5 nM
- EC50 (read off the curve) (human 5T4 on cells [13]): ~4 nM
- EC50 (read off the curve) [14]: ~0.4 nM

B6: mAb006 (antibody, V domains shown)
VH: EVQLVESGGGLVKPGGSLKLSCAASGFTFSNYVMSWVRQTPEKRLEWVATISDRGSYTYYPDYVKGRFTISRDNAKNNLYLQMSHLKSEDTAMYYCARASYYSNLGFAYWGQGTLVTVSA
VL: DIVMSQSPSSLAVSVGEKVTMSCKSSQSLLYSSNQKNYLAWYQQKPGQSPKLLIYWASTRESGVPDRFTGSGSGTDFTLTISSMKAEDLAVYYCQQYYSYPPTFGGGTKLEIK
notes: also called IM, 5T4 mouse hybridoma cl-6
- Kd [1]: 5.67 nM
- koff [2]: 0.00125 s⁻¹
- kon [2]: 220000 M⁻¹ s⁻¹
- binding result (cyno 5T4 on CHO cells [12]): binds

B10: mAb005 (antibody, V domains shown)
VH: EVQLVESGGGLVQPKGSLQLSCAASGFTFNTYAMHWVRQAPGKGLEWVARIRSKSSNYATYYADSVKDRFTISRDDSQSMLYLQMNNLKTEDTAMYYCVRDGDYYYGSRPSYWYFDVWGTGTTVTVSS
VL: DILLTQSPAILSVSPGERVSFSCRASQSIGTNIHWYQQRTNGSPRLLIKYASESISGIPSRFSGSGSGTDFTLSINNVESEDIADYYCQQTNTWPLTFGAGTKLDLK
notes: also called IM, 5T4 mouse hybridoma cl-5
- Kd [1]: 2.69 nM
- koff [2]: 0.00024 s⁻¹
- kon [2]: 89300 M⁻¹ s⁻¹

Results, then the binder that gave them:

- Kd [1]: 0.463 nM
- koff [2]: 9.53e-05 s⁻¹
- kon [2]: 206000 M⁻¹ s⁻¹
- EC50 (read off the curve) [3]: ~0.3 nM
- EC50 (read off the curve) (human 5T4 on cells [4]): ~3 nM
- EC50 (read off the curve) (cyno 5T4 on CHO cells [5]): ~4 nM
B2: mAb010 (antibody, V domains shown)
VH: QVQLRQSGAELMKPGASVKLSCKATGYTFTGYWIEWVKQRPGHGLEWIGEILPGRGSSNYNEKFKGKATLTADTSSNTVYMQLSSLTIEDSAIYYCARGGRDFDYWGQGTTLTVSS
VL: DIQMTQITSSLSASLGDRVTIGCSASQGINNNLNWYQQKPDGTVKLLVYYTSSLHSGVPSRFSGSGSGTDYSLTISNLEPEDIATYYCQQFIKLPYTFGGGTKLEIK
notes: also called mAb10; IM, 5T4 mouse hybridoma cl-10

- EC50 (read off the curve) [10]: ~0.2 nM
- binding result (cyno 5T4 on CHO cells [11]): binds
B4: mAb014 (antibody, V domains shown)
VH: QVQLQQSGGELMKPGASVKLSCKATGYKFTGYWIEWVKQRPGHGLEWIGEILPGRGSTNYNEKFKGKATFTADTSSNTVYMQLSSLTTEDSAIYYCARGGRDFDFWGQGSTLTVSS
VL: DIQMTQTTSSLSASLGDRVTISCSASQGINSNLNWYQQKPDGTVKLLIYYTSSLHSGVPSRFSGSGSGTDYSLTISNLEPEDIATYYCQQYNKLPYTFGGGTKLEIK
notes: also called IM, 5T4 mouse hybridoma cl-14

- Kd [1]: 0.232 nM
- EC50 (read off the curve) [15]: ~0.2 nM
- koff [2]: 3.48e-05 s⁻¹
- kon [2]: 150000 M⁻¹ s⁻¹
B7: mAb016 (antibody, V domains shown)
VH: AVQLQQSGPVRVKPGASVKMSCKASGYPFTDYYMNWVKQSHGRSLDWIGVFNPYNGDTRYTQKFKDKATLTIDKSSSTAYMELNSLTSEDSAVYYCARLRLLYDTSEYYVMDYWGQGTSVTVSS
VL: ENVLTQSPAIMSASPGEKVTMTCSASSSVNYMHWYQQKSNTSPKLWIYDTSKLASGVPGRFSGSGSGNSYSLTISSMEAEDVATYFCFQGSGYPYTFGGGTKLEIK
notes: also called mAb0016; IM, 5T4 mouse hybridoma cl-16

- Kd [1]: 0.269 nM
- EC50 (read off the curve) [15]: ~0.3 nM
- koff [2]: 6.97e-05 s⁻¹
- kon [2]: 259000 M⁻¹ s⁻¹
- binding result (cyno 5T4 on CHO cells [11]): binds
B8: mAb018 (antibody, V domains shown)
VH: EVQLRQSGPVLVKPGASLKMSCKASGFTIADYYMTWVTQSHGQSLDWIGLINPYSGETTYNQKFKGKATLSVDKSSNTAYMDLNSLTSEDSAVYYCARWRLGYYAMDYWGRGTSVTVSS
VL: ENVLTQSPAIMSASPGEKVTMTCSASSSVSYMHWYQQKSSTSPKVWIYDTSKLASGVPGRFSGSGSGNSYSLTISSMEAEDVATYYCFQGIGYPYTFGGGTKLEIK
notes: also called IM, 5T4 mouse hybridoma cl-18

- EC50 (human 5T4 on cells [6]): 1.1 nM
- EC50 (human 5T4 on cells [7]): 0.9 nM
- Kd [16]: 14.7 nM
- EC50 [8]: 0.3 nM
- EC50 (cyno 5T4 on CHO cells [9]): 2.2 nM
B9: mAb016-hIgG1 chimeric Ab (antibody, V domains shown)
VH: AVQLQQSGPVRVKPGASVKMSCKASGYPFTDYYMNWVKQSHGRSLDWIGVFNPYNGDTRYTQKFKDKATLTIDKSSSTAYMELNSLTSEDSAVYYCARLRLLYDTSEYYVMDYWGQGTSVTVSS
VL: ENVLTQSPAIMSASPGEKVTMTCSASSSVNYMHWYQQKSNTSPKLWIYDTSKLASGVPGRFSGSGSGNSYSLTISSMEAEDVATYFCFQGSGYPYTFGGGTKLEIK
notes: Mouse VH and VL of mAb016 cloned into human IgG1; also called mAb0016-IgG1

Reference: US20240228658A1 (IMMUNORIZON, published 2024)
